Data published in patent US20230340112A1 (published 2023).

Legend:
mDC cell surface SIRPα [1] = target: T1, mDC cell surface SIRPα (human, UniProt P78324 31-504); test: FACS binding; Donor #298
cell-surface SIRPα (mDC) [2] = target: T2, cell-surface SIRPα (mDC) (human, UniProt P78324 31-504); test: FACS blocking of CD47/SIRPα; Donor #296
cell-surface SIRPα (mDC) [3] = target: T2, cell-surface SIRPα (mDC); test: FACS blocking of CD47/SIRPα; Donor #298
mDC cell surface SIRPα [4] = target: T1, mDC cell surface SIRPα; test: FACS binding; Donor #296

T2 sequence (P78324 31-504): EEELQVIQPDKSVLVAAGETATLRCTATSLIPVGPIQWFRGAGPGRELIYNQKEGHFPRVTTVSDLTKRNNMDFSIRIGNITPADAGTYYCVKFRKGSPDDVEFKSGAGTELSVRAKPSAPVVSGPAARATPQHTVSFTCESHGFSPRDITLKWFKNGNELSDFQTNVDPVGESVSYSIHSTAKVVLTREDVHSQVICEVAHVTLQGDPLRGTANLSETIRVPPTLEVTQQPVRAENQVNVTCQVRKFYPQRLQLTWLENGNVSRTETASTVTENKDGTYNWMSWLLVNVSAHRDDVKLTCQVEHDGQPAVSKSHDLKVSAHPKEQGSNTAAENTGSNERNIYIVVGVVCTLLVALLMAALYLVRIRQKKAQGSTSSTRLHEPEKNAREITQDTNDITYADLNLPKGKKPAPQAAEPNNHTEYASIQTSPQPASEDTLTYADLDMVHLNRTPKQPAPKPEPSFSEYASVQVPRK
T1 sequence (P78324 31-504): as above

B1: OSE-172 (antibody, V domains shown)
VH: EVQLVQSGAEVKKPGESLRISCKASGYSFTSYWVHWVRQMPGKGLEWMGNIDPSDSDTHYSPSFQGHVTLSVDKSISTAYLQLSSLKASDTAMYYCVRGGTGTLAYFAYWGQGTLVTVSS
VL: DVVMTQSPLSLPVTLGQPASISCRSSQSLVHSYGNTYLYWFQQRPGQSPRLLIYRVSNRFSGVPDRFSGSGSGTDFTLKISRVEAEDVGVYYCFQGTHVPYTFGGGTKVEIKR
mDC cell surface SIRPα [1]
  EC50: 1.27 nM
cell-surface SIRPα (mDC) [2]
  IC50: 1.25 nM
cell-surface SIRPα (mDC) [3]
  IC50: 1.77 nM
mDC cell surface SIRPα [4]
  EC50: 0.768 nM
